IntAct's records for PubMed 29039417

B1: Protein PTHB1 (Homo sapiens), Q3SYG4 (parent)
chain: MSLFKARDWWSTILGDKEEFDQGCLCLANVDNSGNGQDKIIVGSFMGYLRIFSPHPAKTGDGAQAEDLLLEVDLRDPVLQVEVGKFVSGTEMLHLAVLHSRKLCVYSVSGTLGNVEHGNQCQMKLMYEHNLQRTACNMTYGSFGGVKGRDLICIQSMDGMLMVFEQESYAFGRFLPGFLLPGPLAYSSRTDSFLTVSSCQQVESYKYQVLAFATDADKRQETEQQKLGSGKRLVVDWTLNIGEQALDICIVSFNQSASSVFVLGERNFFCLKDNGQIRFMKKLDWSPSCFLPYCSVSEGTINTLIGNHNNMLHIYQDVTLKWATQLPHIPVAVRVGCLHDLKGVIVTLSDDGHLQCSYLGTDPSLFQAPNVQSRELNYDELDVEMKELQKIIKDVNKSQGVWPMTEREDDLNVSVVVSPNFDSVSQATDVEVGTDLVPSVTVKVTLQNRVILQKAKLSVYVQPPLELTCDQFTFEFMTPDLTRTVSFSVYLKRSYTPSELEGNAVVSYSRPTDRNPDGIPRVIQCKFRLPLKLICLPGQPSKTASHKITIDTNKSPVSLLSLFPGFASQSDDDQVNVMGFHFLGGARITVLASKTSQRYRIQSEQFEDLWLITNELILRLQEYFEKQGVKDFACSFSGSIPLQEYFELIDHHFELRINGEKLEELLSERAVQFRAIQRRLLARFKDKTPAPLQHLDTLLDGTYKQVIALADAVEENQGNLFQSFTRLKSATHLVILLIALWQKLSADQVAILEAAFLPLQEDTQELGWEETVDAAISHLLKTCLSKSSKEQALNLNSQLNIPKDTSQLKKHITLLCDRLSKGGRLCLSTDAAAPQTMVMPGGCTTIPESDLEERSVEQDSTELFTNHRHLTAETPRPEVSPLQGVSE
partner: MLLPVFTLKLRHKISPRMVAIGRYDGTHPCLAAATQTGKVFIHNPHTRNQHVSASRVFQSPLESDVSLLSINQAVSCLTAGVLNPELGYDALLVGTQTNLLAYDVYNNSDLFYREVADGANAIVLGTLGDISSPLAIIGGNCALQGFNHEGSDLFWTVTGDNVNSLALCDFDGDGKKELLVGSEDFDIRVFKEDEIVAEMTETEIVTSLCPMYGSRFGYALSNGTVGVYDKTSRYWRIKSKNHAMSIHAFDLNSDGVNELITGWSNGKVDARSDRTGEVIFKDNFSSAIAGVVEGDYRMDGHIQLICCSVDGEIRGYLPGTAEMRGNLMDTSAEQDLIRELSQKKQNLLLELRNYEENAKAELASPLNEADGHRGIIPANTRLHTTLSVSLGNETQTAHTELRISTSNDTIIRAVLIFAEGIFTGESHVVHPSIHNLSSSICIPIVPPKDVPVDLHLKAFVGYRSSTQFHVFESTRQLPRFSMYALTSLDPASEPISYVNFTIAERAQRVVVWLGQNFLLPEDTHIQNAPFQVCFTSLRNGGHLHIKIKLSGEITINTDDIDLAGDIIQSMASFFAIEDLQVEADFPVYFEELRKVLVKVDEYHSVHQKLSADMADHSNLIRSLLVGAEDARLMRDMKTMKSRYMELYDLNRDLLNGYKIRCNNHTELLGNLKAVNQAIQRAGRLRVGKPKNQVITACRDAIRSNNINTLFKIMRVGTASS

Variants of: B1
Settings: with bbs2_human BBS2, Q9BXC9

Row | effect of a mutation on the interaction | Variant
1 | with no effect | E625K
2 | with no effect | E625A
3 | with no effect | F624A
4 | with no effect | F624K
5 | with no effect | F624E
6 | disrupting interaction strength | F624N
7 | with no effect | A682K
8 | with no effect | A682E
9 | with no effect | L681K
10 | with no effect | L681A
11 | with no effect | L681E
12 | with no effect | I640A
13 | with no effect | I640E
14 | with no effect | I640K
15 | with no effect | E660K
16 | with no effect | E660A
17 | with no effect | Y645K
18 | with no effect | Y645E
19 | with no effect | Y645A
20 | with no effect | F653A
21 | with no effect | F653E
22 | with no effect | F653K
23 | with no effect | D631E

Row | effect of a mutation on the interaction | Variant
24 | with no effect | D631A
25 | with no effect | D631K
26 | with no effect | F636E
27 | with no effect | F636A
28 | with no effect | F636K
29 | with no effect | Q621K
30 | with no effect | I649A
31 | with no effect | I649K
32 | with no effect | I649E
33 | with no effect | R683E
34 | with no effect | R683A
35 | with no effect | R683K
36 | with no effect | E647A
37 | with no effect | E647K
38 | with no effect | Q643K
39 | with no effect | Q643E
40 | with no effect | Q643A
41 | with no effect | G659E
42 | with no effect | G659A
43 | with no effect | G659K
44 | with no effect | F684E
45 | with no effect | F684A
46 | with no effect | F684K

Row | effect of a mutation on the interaction | Variant
47 | with no effect | L655E
48 | with no effect | L655A
49 | with no effect | L655K
50 | with no effect | P641E
51 | with no effect | P641K
52 | with no effect | P641A
53 | with no effect | K661A
54 | with no effect | K661E
55 | with no effect | H652K
56 | with no effect | H652E
57 | with no effect | H652A
58 | with no effect | E644K
59 | with no effect | E644A
60 | with no effect | F632E
61 | with no effect | F632A
62 | with no effect | F632K
63 | with no effect | L662E
64 | with no effect | L662A
65 | with no effect | L662K
66 | with no effect | S637E
67 | with no effect | S637K
68 | with no effect | S637A
69 | with no effect | A670K

Row | effect of a mutation on the interaction | Variant
70 | disrupting interaction strength | A670T
71 | with no effect | A670E
72 | with no effect | L666A
73 | with no effect | L666K
74 | with no effect | L666E
75 | with no effect | E663K
76 | with no effect | E663A
77 | with no effect | E654K
78 | with no effect | E654A
79 | with no effect | N658A
80 | with no effect | N658E
81 | with no effect | N658K
82 | with no effect | K626E
83 | with no effect | K626A
84 | with no effect | A675E
85 | with no effect | A675K
86 | disrupting interaction strength | A675H
87 | with no effect | G638A
88 | with no effect | G638E
89 | with no effect | G638K
90 | with no effect | L680K
91 | with no effect | L680E
92 | with no effect | L680A

Row | effect of a mutation on the interaction | Variant
93 | with no effect | S667K
94 | with no effect | S667A
95 | with no effect | S667E
96 | with no effect | L648A
97 | with no effect | L648K
98 | with no effect | L648E
99 | with no effect | F646K
100 | with no effect | F646A
101 | with no effect | F646E
102 | with no effect | A633K
103 | disrupting interaction strength | A633V
104 | with no effect | A633E
105 | with no effect | G628A
106 | disrupting interaction strength | G628E
107 | with no effect | G628K
108 | with no effect | E668K
109 | with no effect | E668A
110 | with no effect | E664K
111 | with no effect | E664A
112 | with no effect | Q627K
113 | with no effect | Q627E
114 | with no effect | Q627A
115 | with no effect | Q672A

Row | effect of a mutation on the interaction | Variant
116 | with no effect | Q672E
117 | with no effect | Q672K
118 | with no effect | I657K
119 | with no effect | I657E
120 | with no effect | I657A
121 | with no effect | K685A
122 | with no effect | H651A
123 | with no effect | H651K
124 | with no effect | H651E
125 | with no effect | L642K
126 | with no effect | L642E
127 | with no effect | L642A
128 | with no effect | R656E
129 | with no effect | R656K
130 | with no effect | R656A
131 | with no effect | R669K
132 | with no effect | R669A
133 | with no effect | R669E
134 | with no effect | Y623A
135 | with no effect | Y623E
136 | with no effect | Y623K
137 | disrupting interaction strength | R674P
138 | with no effect | R674K

Row | effect of a mutation on the interaction | Variant
139 | with no effect | R674A
140 | with no effect | R674E
141 | with no effect | K630A
142 | with no effect | K630E
143 | disrupting interaction strength | F673K
144 | with no effect | F673E
145 | with no effect | F673A
146 | with no effect | S639K
147 | with no effect | S639A
148 | with no effect | S639E
149 | with no effect | V629E
150 | with no effect | V629A
151 | with no effect | V629K
152 | with no effect | V671K
153 | with no effect | V671A
154 | with no effect | V671E
155 | with no effect | R678E
156 | with no effect | R678A
157 | with no effect | R678K
158 | with no effect | L665K
159 | disrupting interaction strength | L665R
160 | with no effect | L665A
161 | with no effect | L665E

Row | effect of a mutation on the interaction | Variant
162 | with no effect | R679E
163 | with no effect | R679A
164 | disrupting interaction strength | R679G
165 | with no effect | R679K
166 | with no effect | C634E
167 | with no effect | C634A
168 | with no effect | C634K
169 | with no effect | Q677E
170 | disrupting interaction strength | Q677Y
171 | with no effect | Q677A
172 | with no effect | Q677K
173 | with no effect | I676K
174 | with no effect | I676E
175 | with no effect | I676A
176 | with no effect | S635K
177 | with no effect | S635E
178 | with no effect | S635A
179 | with no effect | E622K
180 | with no effect | E622A
181 | with no effect | D650E
182 | with no effect | D650K
183 | with no effect | D650A
